Results: publication PMC6846668 (Nucleic Acids Research, 2019)
Positions count from the first letter of the chain named. Names and notes keep the numbering of the source.

T1: PolIV (Escherichia coli, UniProt Q47155)
T1 sequence (Q47155 1-351): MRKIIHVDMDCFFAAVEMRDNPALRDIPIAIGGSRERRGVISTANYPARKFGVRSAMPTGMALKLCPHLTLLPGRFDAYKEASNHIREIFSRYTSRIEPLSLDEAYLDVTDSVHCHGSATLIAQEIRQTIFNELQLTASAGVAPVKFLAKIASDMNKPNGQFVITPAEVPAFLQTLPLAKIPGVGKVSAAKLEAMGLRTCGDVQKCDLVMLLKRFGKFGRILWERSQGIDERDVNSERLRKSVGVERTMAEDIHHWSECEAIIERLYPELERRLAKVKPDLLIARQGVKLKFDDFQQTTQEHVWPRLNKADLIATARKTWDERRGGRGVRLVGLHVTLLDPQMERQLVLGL

B1: MsDpo4 (Mycolicibacterium smegmatis MC2 155) (protein)
chain: MTKWVLHVDLDQFLASVELRRRPDLRGQPVIVGGSGDPSEPRKVVTCASYEAREFGVHAGMPLRAAARRCPDATFLPSDPAAYDEASEQVMGLLRDLGHPLEVWGWDEAYLGADLPDESDPVEVAERIRTVVAAETGLSCSVGISDNKQRAKVATGFAKPAGIYVLTEANWMTVMGDRPPDALWGVGPKTTKKLAAMGITTVADLAVTDPSVLTTAFGPSTGLWLLLLAKGGGDTEVSSEPWVPRSRSHVVTFPQDLTERREMDSAVRDLALQTLAEIVEQGRIVTRVAVTVRTSTFYTRTKIRKLPAPSTDAGQIVDTALAVLDQFELDRPVRLLGVRLELAMDDVPRPAVTAGT
B2: MsDpo4 (Mycolicibacterium smegmatis MC2 155; L14Y) (protein)
chain: B1 chain with L14Y

Legend:
PolIV = target: T1, PolIV; test: primer extension, gel; format: biochemical; details: 6FAM primer/template, 2.5 mM MnCl2, pH 8.0, 37°C
[1] = substrate: Nc1ccn([C@@H]2O[C@H](COP(=O)(O)OP(=O)(O)OP(=O)(O)O)[C@@H](O)[C@H]2O)c(=O)n1; test: primer extension, Lineweaver-Burk; format: biochemical, Mycolicibacterium smegmatis; details: 6FAM 15mer primer/50mer template, 2.5 mM MnCl2, pH 8.0, 37°C

Molecule | primer extension, gel (PolIV) | Km [1] [µM] | kcat [1] [s⁻¹] | kcat/Km [1] [M⁻¹ s⁻¹]
Nc1ccn([C@H]2C[C@H](O)[C@@H](COP(=O)(O)OP(=O)(O)OP(=O)(O)O)O2)c(=O)n1 [dCTP] | mutations did not show a significant difference in the ability of PolIV to incorporate dCTP |  |  | 
B1 |  | 55.3 ± 4.0 | 0.011 ± 0.00117 | 167 ± 16.7
B2 |  | 59.54 ± 13.4 | 0.00167 ± 0.000167 | 26.7 ± 5
